Measured values reported in article PMC10567788, “Asymmetric gating of a human hetero-pentameric glycine receptor” (Nature Communications, 2023).

Tests used:
[1] = target: the molecule itself; assay: cryo-EM structure; α1emβem GlyR co-expressed and co-purified through the PA tag on βem; single-particle cryo-EM in 0.06% digitonin, 20 mM Tris pH 8.0, 200 mM NaCl; apo and with 2 mM glycine (states apo, gly-1 open, gly-2 expanded open, gly-3 desensitized)
[2] = target: human glycine receptor β subunit, cryo-EM construct βem (human); assay: as above
Sequence of human glycine receptor β subunit, cryo-EM construct βem (human) (P48167 whole entry): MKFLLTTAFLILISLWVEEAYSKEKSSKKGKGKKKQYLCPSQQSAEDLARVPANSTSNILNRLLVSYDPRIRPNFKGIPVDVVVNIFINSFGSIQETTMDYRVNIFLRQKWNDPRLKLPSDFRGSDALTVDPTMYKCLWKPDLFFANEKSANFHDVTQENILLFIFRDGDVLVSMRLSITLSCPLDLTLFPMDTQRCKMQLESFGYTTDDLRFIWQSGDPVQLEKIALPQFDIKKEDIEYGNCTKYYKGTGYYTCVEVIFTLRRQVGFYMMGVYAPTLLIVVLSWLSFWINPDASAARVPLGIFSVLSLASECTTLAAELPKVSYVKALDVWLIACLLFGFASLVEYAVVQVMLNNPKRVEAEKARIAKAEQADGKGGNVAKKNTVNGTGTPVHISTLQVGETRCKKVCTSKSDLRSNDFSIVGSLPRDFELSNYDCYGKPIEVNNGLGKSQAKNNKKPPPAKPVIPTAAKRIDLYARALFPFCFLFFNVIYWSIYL

B1: human glycine receptor α1 subunit, cryo-EM construct α1em (receptor)
chain: ARSAPKPMSPSDFLDKLMGRTSGYDARIRPNFKGPPVNVSCNIFINSFGSIAETTMDYRVNIFLRQQWNDPRLAYNEYPDDSLDLDPSMLDSIWKPDLFFANEKGAHFHEITTDNKLLRISRNGNVLYSIRITLTLACPMDLKNFPMDVQTCIMQLESFGYTMNDLIFEWQEQGAVQVADGLTLPQFILKEEKDLRYCTKHYNTGKFTCIEARFHLERQMGYYLIQMYIPSLLIVILSWISFWINMDAAPARVGLGITTVLTMTTQSSGSRASLPKVSYVKAIDIWMAVCLLFVFSALLEYAAVNFVSRQHKELLGSSGEEMRKLFIQRAKKIDKISRIGFPMAFLIFNMFYWIIYKIVRREDVHNQ
notes: human glycine receptor α1, NCBI NP_001139512.1, the part before the M3/M4 loop (residues up to L315); linker that replaces the M3/M4 loop residues R316-P381; human glycine receptor α1, NCBI NP_001139512.1, the part after the replaced M3/M4 loop (E382 to the C-terminal Q429); Four copies stand in each α1emβem pentamer; also called GlyR α1; α subunit; source: HEK293S GnTI- cells, BacMam baculovirus …
- binding result [1]: binds
- stoichiometry N (α1 subunits per β subunit) [2]: 4
